Columns and labels:
Assay in all cases: colorimetric ELISA
[1] = biological target: cynomolgus EpCAM protein (cynomolgus)
[2] = biological target: T1, human EpCAM protein (human, UniProt P16422 24-265, biotinylated in the Octet assays (site not stated))
T1 construct: also called hu EpCAM; biotinylated human EpCAM protein
T1 sequence: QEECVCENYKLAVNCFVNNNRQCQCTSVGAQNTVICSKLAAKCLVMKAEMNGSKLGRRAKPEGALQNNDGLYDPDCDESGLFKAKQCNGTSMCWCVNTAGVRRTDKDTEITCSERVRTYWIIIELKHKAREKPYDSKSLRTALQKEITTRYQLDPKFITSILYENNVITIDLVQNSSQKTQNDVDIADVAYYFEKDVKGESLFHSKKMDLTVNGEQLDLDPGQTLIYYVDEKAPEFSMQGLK
Source text: (§1) A phage display library for expression of heavy variable antibody domains was constructed from circulating B cells. See van der Linden, de Geus, Stok, Bos, van Wassenaar, Verrips, and Frenken. 2000. J Immunol Methods 240:185-195.

[3] = biological target: T2, cynomolgus EpCAM protein (cynomolgus, UniProt Q1WER1 27-265 (rhesus entry), limits assumed, biotinylated in the Octet assays (site not stated))
T2 construct: also called cy EpCAM; biotinylated cynomolgus EpCAM protein
T2 sequence: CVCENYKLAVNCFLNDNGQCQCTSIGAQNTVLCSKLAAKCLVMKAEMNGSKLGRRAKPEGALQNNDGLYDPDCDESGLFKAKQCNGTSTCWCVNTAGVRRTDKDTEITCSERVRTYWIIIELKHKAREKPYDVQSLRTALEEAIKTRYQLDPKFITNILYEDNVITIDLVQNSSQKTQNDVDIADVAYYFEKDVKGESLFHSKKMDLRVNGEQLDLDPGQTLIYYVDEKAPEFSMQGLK
Source text: as §1

| Binder | Cynomolgus EpCAM/Control [1] | Human EpCAM/Control [2] | Cynomolgus EpCAM/Control [3] |
| --- | --- | --- | --- |
| EPL145 (VHH) VHH: QVQLQESGGGLVQAGGSLRLSCAASGFIFRAASMGWFRQSPGNERELVATVSSGGFTNYADSVKGRFTISRDNAKNTVYLQMNSLKPEDTAVYFCGATFVRSDGHHTIYGQGTQVTVSS | 2 | 3 | – |
| EPL60 (VHH) VHH: QVQLQESGGGLVQAGGSLRLSCAASEYILSMYRMAWYRQAPGKVRELVADMSSGGTTNYADFVKGRFTISRDNDRNTVYLQMNRLQPEDTAAYYCNVAGRTGPPSYDAFNNWGQGTQVTVSS | – | 10 | 33 |
| EPL156 (VHH) VHH: QVQLQESGGGLVQPGASLRVSCAASEYILSMYRMAWYRQAPGKVRELVADMSSGGTTNYADFVKGRFTISRDNDRNTVYLQMNRLQPEDTAAYYCNVAGRTGPPSYDAFNNWGQGTQVTVSS | – | 16 | 17 |
| EPL159 (VHH) VHH: QVQLQESGGGLVQAGGSLRLSCAASGFAFGNHWMYWYRQAPGRGRELVASISSGGSTNYVDSVKGRFTISRDNARNTVYLQMYSLKPEDTAVYYCGTSDNWGQGTQVTVSS | 2 | – | – |
| EPL13 (VHH) VHH: QVQLQESGGGLVQPGGSLRLSCAASGFAFGNHWMYWYRQAPGRGRELVASISSGGSTNYVDSVKGRFTISRDNARNTVYLQMYSLKPEDTAVYYCGTSDNWGQGTQVTVSS | – | 17 | 23 |
| EPL129 (VHH) VHH: QVQLQESGGGLVQAGGSLRLSCAASGFAFGNHWMYWYRQAPGRGRELVASISSGGSTNYVDSVKGRFTISRDNARNTVYLQMYSLRPEDTAVYYCGTSDNWGQGTQVTVSS | – | 20 | 29 |
| EPL20 (VHH) VHH: QVQLQESGGGLVQAGGSLKLSCAASGNVFRAATMAWYRQAPEKQREMVATIASGGTTNYADFVKGRFTISRDNAKNTVYLQMNTLKPEDTAVYYCNAGYLTSLGPKNYWGQGTQVTVSS | – | 6 | 4 |
| EPL125 (VHH) VHH: QVQLQESGGGLVQAGGSLRLSCAASGNVFRAATMAWYRQVPEKQREMVATIASGGTTNYADFVKGRFTISRDNAKNTVYLQMNTLKPEDTAVYYCNALYLTSLGPKSYWGQGTQVTVSS | – | 8 | 8 |
| EPL86 (VHH) VHH: QVQLQESGGGLVQPGGSLRLSCAASGFTFSDWAMSWVRQAPGKGLEWVSGIHYGDHTTHYADFVKGRFTISRDDAKNTLYLQMNSLKPEDTAVYYCARGSTKGQGTQVTVSS | – | 8 | 31 |
| EPL153 (VHH) VHH: QVQLQESGGGLVQPGGSLRLSCAASGFTFSDWAMSWVRQAPGKGLEWVSSIHYGDHTTHYADFVKGRFTISRDDAKNTLYLQMNSLKPEDTAVYYCEKGTTRGQGTQVTVSS | – | 31 | 21 |
